Reference: patent US20110165564, “SEQUENCE-SPECIFIC DETECTION OF METHYLATION IN BIOMOLECULES” (MAX-PLANCK-GESELLSCHAFT ZUR FÖRDERUNG DER …, published 2011)

Target: T1, M.HhaI (DNA cytosine-5 methyltransferase) (Haemophilus haemolyticus, UniProt P05102 P05102:1-327)
T1 sequence: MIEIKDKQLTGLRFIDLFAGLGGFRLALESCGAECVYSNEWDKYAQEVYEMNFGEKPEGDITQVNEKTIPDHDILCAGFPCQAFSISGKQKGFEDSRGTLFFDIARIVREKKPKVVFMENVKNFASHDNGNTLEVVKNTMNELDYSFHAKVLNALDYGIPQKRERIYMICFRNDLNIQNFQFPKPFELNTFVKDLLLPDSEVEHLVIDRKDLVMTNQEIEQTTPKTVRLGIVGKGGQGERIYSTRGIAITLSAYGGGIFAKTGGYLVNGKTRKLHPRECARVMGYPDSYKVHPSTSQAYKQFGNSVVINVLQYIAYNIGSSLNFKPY
Experiment: anion exchange HPLC; coupling of aziridine cofactors 1, 2, 3 almost complete; non-covalent M.HhaI-product DNA complex; 10 mM Tris pH 7.4, 50 mM NaCl, 37 C
Description: Solutions (400 μL) of aziridine cofactor 1, 2 or 3 (32 nmol, 80 μM), duplex oligodeoxynucleotide I-II (4 nmol, 10 μM) and M.HhaI (4.4 nmol, 11 μM) in buffer (10 mM Tris hydrochloride, pH 7.4, 50 mM sodium chloride, 0.05 mM ethylenediaminetetraacetic acid and 2 mM β-mercaptoethanol) were incubated at 37° C. The progress of the coupling reactions was monitored by anion exchange HPLC (Poros 10 HQ, 10 μm, 4.6×10 mm, Applied Biosystems). Compounds were eluted with aqueous potassium chloride (0.2 M for 5 min, followed by linear gradients to […], to 0.6 M in 20 min and to 1 M in 5 min) in Tris hydrochloride buffer (10 mM, pH 7.6) at a flow of 4 mL/min. […] These new compounds are assigned to non-covalent protein-DNA complexes between M.HhaI and the coupling products I¹-II, I²-II and I³-II based on their UV absorption ratio at 260 nm and 280 nm.
The presence and functionality of biotin groups in I¹-II, I²-II and I³-II were verified by addition of streptavidin. Residual aziridine cofactors 1, 2 or 3 were first removed from the labelled duplexes I¹-II, I²-II or I³-II by gel filtration using NAP-5 columns (Amersham Biosciences, Freiburg, Germany) according to the instructions of the supplier. Afterwards, streptavidin (25 μg) was added to the solutions (25 μL, 0.25 nmol I¹-II, I²-II or I³-II) and incubation was performed at 37° C. for 30 min.

B1: duplex I-II (hemimethylated) (dsDNA)
DNA 1: TGTCAGCGCATGA
DNA 2: TCATGCGCTGACA
modifications: 5mC at M in lower strand 5'-…-3'
  binding result: binds
